Test results as given in patent CN105646713A (UNIV CHINA PHARMA, dated 2016).

Molecular target: T1, CD24多肽 (human, UniProt P25063 27-59)
T1 construct: domain: CD24核心区; also called CD24核心区多肽; 抗原肽CD24
T1 peptide (looked up): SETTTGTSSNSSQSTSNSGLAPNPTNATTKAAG
Assay: Competitive ELISA by the Friguet method: 10 pM antibody preincubated overnight with 0-6.25e-10 M antigen, then free antibody captured on coated CD24 peptide; KD from linear regression

B1: 单克隆抗体E4 (antibody, V domains shown)
VH: QVKLEESGGGLVQPGGSLKISCAASGPDFSRYWMSWVRQAPGKGLEWIGEINPDYSTINYTPSLRDKFIISRDNAKNTLYLQMSKVRYEDTSLYYCVRQGDYWGQGTSVTVSS
VL: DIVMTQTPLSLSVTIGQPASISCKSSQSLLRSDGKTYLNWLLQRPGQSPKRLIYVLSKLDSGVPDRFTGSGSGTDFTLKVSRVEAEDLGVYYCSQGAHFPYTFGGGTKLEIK
notes: also called E4杂交瘤细胞株抗体
  Kd: 0.84 nM
